Results on two molecules are retold here after patent US20240400693A1 (Chugai, published 2024).

Changes are numbered by the printed parent chain.

Holding throughout (assay): cell-based or functional assay
Assay [1] deals with HLA-DQ2.5 on IHW09023 cells loaded with 33mer gliadin peptide (human; wheat).
For assay [2], the target named is HLA-DQ2.5 on IHW09023 cells loaded with omega1/2 gliadin peptide (human; wheat).
Assay [3] deals with HLA-DQ2.5 on IHW09023 cells loaded with BC hordein peptide (human; barley).
In assay [4] the target is HLA-DQ2.5 on IHW09023 cells loaded with gamma 1 gliadin peptide (human; wheat).
In assay [5] the target is HLA-DQ2.5 on IHW09023 cells loaded with gamma 2 gliadin peptide (human; wheat).
Assay [6] addresses HLA-DQ2.5 on IHW09023 cells loaded with gamma 3 gliadin peptide (human; wheat).
In assay [7] the target is HLA-DQ2.5 on IHW09023 cells loaded with gamma 4a gliadin peptide (human; wheat).
In assay [8] the target is HLA-DQ2.5 on IHW09023 cells loaded with gamma 4d gliadin peptide (human; wheat).

B1: DQN0344H0976/L0591//DQN0385H1270/L0681-F6 (bispecific antibody)
heavy 1: QVQLVESGGGVVQPGGSLRLSCAASGFTFSSAYWMVWVRQAPGQGLEWMGAVYGGSDTTYYAKWTEGRFTISRDTSKNTLYLQMNSLRAEDTAVYYCAREPLNYYYYGELNLWGQGTLVTVSSASTKGPSVFPLAPSSKSTSGGTAALGCLVKDYFPEPVTVSWNSGALTSGVHTFPAVLKSSGLYSLSSVVTVPSSSLGTQTYICNVNHKPSNTKVDKRVEPKSCDKTHTCPPCPAPELRRGPSVFLFPPKPKDTLMISRTPEVTCVVVDVSHEDPEVKFNWYVDGVEVHNAKTKPREEQYNSTYRVVSVLTVLHQDWLNGKEYKCKVSNKALPAPIEKTISKAKGQPREPQVYTLPPSREEMTKNQVSLTCLVKGFYPSDIAVEWESNGQPENNYKTTPPYLDSDGSFFLYSKLTVDKSRWQEGNVFSCSVLHEALHAHYTREELSLSP
light 1: DIQMTQSPSSLSASVGDRVTITCQATEEIYSGLAWYQQKPGKAPKLLIYYVSTLYEGIPARFSGSGSGTDFTLTISSLEPEDFAVYYCQTYEDVSAVTFGQGTKVEIKRTVAAPSVFIFPPSDEQLKSGTAEVVCLLNNFYPREAKVQWKVDNALQSGNSEESVTEQDSKDSTYSLSSTLTLSKADYEKHKVYACEVTHQGLSSPVTKSFNRGEC
heavy 2: QVQLVESGGGVVQPGRSLRLSCAASGFTFSEWYFMSWVRQAPGKGLEWVASIDTGSGSIDYAEWVEGRFTISRDNSKNTLYLQMNSLRAEDTAVYYCARDIGIDYNFWGPGTLVTVSSASTKGPSVFPLAPSSKSTSGGTAALGCLVEDYFPEPVTVSWNSGALTSGVHTFPAVLESSGLYSLSSVVTVPSSSLGTKTYICNVNHKPSNTKVDKRVEPKSCDKTHTCPPCPAPELRRGPSVFLFPPKPKDTLMISRTPEVTCVVVDVSHEDPEVKFNWYVDGVEVHNAKTKPREEQYNSTYRVVSVLTVLHQDWLNGKEYKCKVSNKALPAPIEKTISKAKGQPREPQVYTLPPSRKEMTKNQVSLTCLVKGFYPSDIAVEWESNGQPENNYKTTPPYLDSDGSFFLYSKLTVDKSRWQQGNVFSCSVLHEALHAHYTRKELSLSP
light 2: DIQMTQSPSSLSASVGDRVTITCQTTQSISSYLNWYQQKPGQPPKLLIYYASTKAEGIPARFSGSGLGTDFTLTISSLEPEDFAVYYCHYGISKVSFGQGTKVEIKRTVAAPSVFIFPPSDEQLKSGTAKVVCLLNNFYPREAKVQWKVDNALQSGNSKESVTEQDSKDSTYSLSSTLTLSKADYEKHKVYACEVTHQGLSSPVTKSFNRGEC
Consider B1, for which, in assay [1], the “IC50 (ng/mL), α1b gliadin TCR, 250 nM 33mer gliadin” value turned out to be 1.36 ng/mL and the “IC50 (ng/mL), α2 gliadin TCR, 250 nM 33mer gliadin” value turned out to be 0.34 ng/mL. In assay [2], the “IC50 (ng/mL), ω1 gliadin TCR, 25 µM ω1/2 gliadin” value was 2.07 ng/mL and the “IC50 (ng/mL), ω2 gliadin TCR, 250 nM ω1/2 gliadin” value amounted to 0.26 ng/mL. In addition, the “IC50 (ng/mL), BC hordein TCR, 250 nM BC hordein” value in assay [3] is 12 ng/mL. Further, the “IC50 (ng/mL), γ1 gliadin TCR, 250 nM γ1 gliadin” value in assay [4] is 1.05 ng/mL. The “IC50 (ng/mL), γ2 gliadin TCR, 250 nM γ2 gliadin” value in assay [5] stood at 182 ng/mL. The “IC50 (ng/mL), γ3 gliadin TCR, 100 µM γ3 gliadin” value in assay [6] came to 2.4 ng/mL. Moreover, the “IC50 (ng/mL), γ4a gliadin TCR, 25 µM γ4a gliadin” value in assay [7] came out at 749 ng/mL. Moreover, the “IC50 (ng/mL), γ4d gliadin TCR, 100 µM γ4d gliadin” value in assay [8] is 11.8 ng/mL.

B2: DQN0344H0976/L0591//DQN0385H1255/L0605-F6 (bispecific antibody)
heavy 1: B1 heavy 1
light 1: B1 light 1
heavy 2: B1 heavy 2 with E63G, G67E
light 2: B1 light 2 with L67S
Turning to B2, in assay [1], the “IC50 (ng/mL), α1a gliadin TCR, 250 nM 33mer gliadin” value is 0.49 ng/mL; the “IC50 (ng/mL), α1b gliadin TCR, 250 nM 33mer gliadin” value was found to be 2.66 ng/mL; the “IC50 (ng/mL), α2 gliadin TCR, 250 nM 33mer gliadin” value worked out at 0.56 ng/mL. In assay [2], the “IC50 (ng/mL), ω1 gliadin TCR, 25 µM ω1/2 gliadin” value stood at 2.62 ng/mL and the “IC50 (ng/mL), ω2 gliadin TCR, 250 nM ω1/2 gliadin” value is 0.25 ng/mL. Besides, the “IC50 (ng/mL), BC hordein TCR, 250 nM BC hordein” value in assay [3] is 13.6 ng/mL. For the same molecule, in assay [4], the “IC50 (ng/mL), γ1 gliadin TCR, 250 nM γ1 gliadin” value is 0.91 ng/mL. The “IC50 (ng/mL), γ2 gliadin TCR, 250 nM γ2 gliadin” value in assay [5] is 440 ng/mL. The “IC50 (ng/mL), γ3 gliadin TCR, 100 µM γ3 gliadin” value in assay [6] was 2.31 ng/mL. In assay [7], the “IC50 (ng/mL), γ4a gliadin TCR, 25 µM γ4a gliadin” value amounted to 1430 ng/mL. The “IC50 (ng/mL), γ4d gliadin TCR, 100 µM γ4d gliadin” value in assay [8] is 12.4 ng/mL.
